{"source": "paper PMC11968938", "about": "(Scientific Reports, 2025)", "key": {"crystal structure [1]": {"target": "the molecule itself", "assay": "crystal structure"}, "crystal structure [2]": {"target": "the molecule itself", "assay": "crystal structure", "remark": "listed apart in the source"}}, "note": "Like-named read-outs stand apart in the source and are kept apart here."}
{"protein": "BBH37_(131-312) (domain or fragment, B. burgdorferi B31, UniProt O50692 131-312, looked up, Cys165 in a disulfide bond with Cys165 of the other protomer) FFPSTEEEKQADKAIKDIENLIGESGFPELIENVCSLKHEYTLIRSDFYDVITKIQNKKISLMKNSHNNRNKIRELVQLQNNLKIGDELDKIMGCIDTAEQEIRSAAFFFDEAKESLKEGIIKRLEKSKNRAASQLSKKALNRAEDALRCLENYSSKKGEAIGRRSFIKEVVEQAKNALSKS", "values": [{"measurement": "stoichiometry N", "setting": "crystal structure [1]", "value": 2}]}
{"protein": "BBH37_(119-312) (domain or fragment, B. burgdorferi B31, UniProt O50692 119-312, looked up, Cys165 in a disulfide bond with Cys165 of the other protomer) EHNQKKEIKEEDFFPSTEEEKQADKAIKDIENLIGESGFPELIENVCSLKHEYTLIRSDFYDVITKIQNKKISLMKNSHNNRNKIRELVQLQNNLKIGDELDKIMGCIDTAEQEIRSAAFFFDEAKESLKEGIIKRLEKSKNRAASQLSKKALNRAEDALRCLENYSSKKGEAIGRRSFIKEVVEQAKNALSKS", "values": [{"measurement": "stoichiometry N", "setting": "crystal structure [2]", "value": 2}]}
